Earlier results, collected in paper PMC8698604.
Where two headings read alike, the source gives them in different places. Values belong to the substance of their own block, whether it stands above or below them.

What was measured:
fibrin (Homo sapiens) [1] = biological target: fibrin (Homo sapiens) (UniProt P02671)
fibrin (Homo sapiens) [2] = biological target: fibrin (Homo sapiens) (UniProt P02671); remark: listed apart in the source
plasmin (Homo sapiens) [3] = biological target: plasmin (Homo sapiens) (UniProt P00747)
[4] = biological target: plasminogen (Homo sapiens) (UniProt P00747)
t-PA (Homo sapiens) [5] = biological target: t-PA (Homo sapiens) (UniProt P00750)
plasmin (Homo sapiens) [6] = biological target: plasmin (Homo sapiens) (UniProt P00747); remark: listed apart in the source
t-PA (Homo sapiens) [7] = biological target: t-PA (Homo sapiens) (UniProt P00750); remark: listed apart in the source
[8] = biological target: plasminogen (Homo sapiens) (UniProt P00747); remark: listed apart in the source
[9] = biological target: plasminogen (Homo sapiens) (UniProt P00747); experiment: fluorescence
plasmin (Homo sapiens) [10] = biological target: plasmin (Homo sapiens) (UniProt P00747); remark: listed apart in the source

Sequence of UniProt P00750 (P00750 36-562): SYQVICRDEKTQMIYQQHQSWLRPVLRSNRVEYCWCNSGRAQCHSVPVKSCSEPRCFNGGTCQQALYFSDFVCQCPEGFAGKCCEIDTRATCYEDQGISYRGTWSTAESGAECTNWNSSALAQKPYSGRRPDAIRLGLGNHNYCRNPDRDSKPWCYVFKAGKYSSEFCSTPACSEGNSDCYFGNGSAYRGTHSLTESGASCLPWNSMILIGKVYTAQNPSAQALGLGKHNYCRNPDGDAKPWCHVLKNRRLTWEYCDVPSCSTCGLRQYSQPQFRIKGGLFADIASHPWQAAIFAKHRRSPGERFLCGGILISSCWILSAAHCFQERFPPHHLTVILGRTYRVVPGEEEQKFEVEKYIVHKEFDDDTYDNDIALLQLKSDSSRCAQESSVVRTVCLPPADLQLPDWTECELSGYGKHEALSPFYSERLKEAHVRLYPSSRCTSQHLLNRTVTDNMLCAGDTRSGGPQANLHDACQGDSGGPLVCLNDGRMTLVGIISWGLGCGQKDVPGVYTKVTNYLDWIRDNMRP

Kd (fibrin (Homo sapiens) [1]): 300 nM | Kd (fibrin (Homo sapiens) [2]): 30000 nM
Substance: plasminogen (from UniProt P00747)

Kd (plasmin (Homo sapiens) [3]): 780 nM
Substance: ANXA2 (from UniProt P07355)

Kd [4]: 1810 nM | Kd (t-PA (Homo sapiens) [5]): 450 nM | Kd (plasmin (Homo sapiens) [6]): 360 nM
Substance: S100A10 (from UniProt P60903)

Kd (t-PA (Homo sapiens) [7]): 680 nM | Kd [8]: 110 nM | Kd [9]: 1000 nM | Kd (plasmin (Homo sapiens) [10]): 75 nM
Substance: AIIt (ANXA2/S100A10) (from UniProt P07355)
